Test results published in patent US20250277030A1, “ANTI-NAPI2B ANTIBODIES AND METHODS OF USE” (Zymeworks BC Inc., priority 2022, published 2025).

Columns and labels:
[1] = NS-ELISA non-specific binding, heparin; settings: mAb at 100 nM
Description: (§1) The isoelectric point was measured by capillary isoelectric focusing (cIEF), the propensity for self-aggregation was measured by Affinity-capture self-interaction nanoparticle spectroscopy (AC-SINS) and non-specific binding was measured by NS-ELISA, as described below.
(§2) NS-ELISA was used to measure the propensity of the antibodies to bind to a range of biomolecules to emulate the undesirable non-specific interactions to biological matrices in vivo as described below.
(§3) NS-ELISA was carried out in Corning®96-well EIA/RIA Easy Wash™ Clear Flat Bottom Polystyrene High Bind Microplate coated overnight at 4° C. with 50 μL of Heparin (Sigma, H3149) diluted with 50 mM sodium carbonate pH 9.6 to a final concentration of 250 μg/mL. The plate was incubated for 2 days at room temperature, wells that were coated with heparin were not covered to allow air dry. […] Reactions were stopped after approximately 10 minutes by adding 100 μL of 1 M HCl to each well, and absorbance was read at 450 nm. Binding scores were calculated as the ratio of the ELISA signal of the antibody (antibody-treated) to the signal of a well containing buffer instead of the primary antibody (untreated). The cutoffs considered for each binding molecule (ssDNA, KLH, insulin, dsDNA and heparin) were internally calculated, based on the average of Zymeworks Inc. produced antibodies and antibodies benchmarks published in the literature.

[2] = target: T1, NaPi2b expressed on HCC-78 cells (Homo sapiens, UniProt O95436); assay: Cellular binding of antibody and ADCs to HCC-78 cells by flow cytometry (Example 14)
T1 construct: endogenous in cells; host or cells: HCC-78
T1 sequence (O95436 1-690): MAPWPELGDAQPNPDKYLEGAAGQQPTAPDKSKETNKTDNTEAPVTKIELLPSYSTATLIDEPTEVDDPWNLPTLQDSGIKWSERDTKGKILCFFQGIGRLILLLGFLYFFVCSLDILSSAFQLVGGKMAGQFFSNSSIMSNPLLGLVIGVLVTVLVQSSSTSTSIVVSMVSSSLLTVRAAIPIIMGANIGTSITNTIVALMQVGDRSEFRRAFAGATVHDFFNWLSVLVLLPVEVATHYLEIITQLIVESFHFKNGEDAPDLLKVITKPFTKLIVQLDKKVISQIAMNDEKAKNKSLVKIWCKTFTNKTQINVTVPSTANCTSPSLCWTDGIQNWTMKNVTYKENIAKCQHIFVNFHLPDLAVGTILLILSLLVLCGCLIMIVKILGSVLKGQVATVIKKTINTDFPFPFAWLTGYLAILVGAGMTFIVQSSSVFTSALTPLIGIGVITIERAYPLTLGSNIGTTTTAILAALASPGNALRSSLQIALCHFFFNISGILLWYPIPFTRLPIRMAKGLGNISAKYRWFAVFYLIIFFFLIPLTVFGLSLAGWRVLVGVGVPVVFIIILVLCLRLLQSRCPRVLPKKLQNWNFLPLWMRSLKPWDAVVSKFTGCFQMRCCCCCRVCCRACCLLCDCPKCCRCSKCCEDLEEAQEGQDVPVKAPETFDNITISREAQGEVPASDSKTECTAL
Description: Briefly, HEK293-6e cells were transfected for ˜24 hours to transiently express human NaPi2b, cynomolgus or mouse NaPi2b, at 1 μg of DNA per 1 million cells. Following transfection, 50,000 cells per well were seeded in V-bottom 96-well plates and incubated with 200 nM of primary antibody for 18-24 hours at 4° C. to prevent internalization. Post-incubation, cells were washed and stained with anti-Human IgG Fc AF647 conjugate (Jackson Immuno Research Labs, West Grove, PA, Cat. No. 109-605-098, Lot. No. 124868) at 4° C. for 1 hour. Following staining and washing, fluorescence was detected by flow cytometry on BD LSRFortessa™ Cell Analyzer (BD Biosciences, Franklin Lake, NJ) with 10,000 minimum events collected per well. The AF647/APC-A GeoMean (fluorescence signal geometric mean, proportional to anti-Human AF647 binding) was calculated for the live singlet cell population for each primary antibody using FlowJo™ v8 software (BD Biosciences, Franklin Lake, NJ). The Bmax and Kd of each primary antibody were calculated using GraphPad Prism Version 9 (GraphPad Software, San Diego, CA)
The ability of ADCs to bind to cells expressing NaPi2b was assessed. ADCs of a representative humanized variant antibody, v29456 (H1L2), were prepared by conjugation to DL2 and DL1 as described in Example 11. Binding to endogenous high NaPi2b-expressing cell lines IGROV-1 and HCC-78 was assessed by flow cytometry according to methods described in Example 5.

dsDNA = assay: NS-ELISA non-specific binding, dsDNA; settings: mAb at 100 nM
Description: as §1, §2, §3

Insulin = target: T2, Insulin (Homo sapiens, UniProt P01308); assay: NS-ELISA non-specific binding, insulin; settings: mAb at 100 nM
T2 construct: purchased Sigma-Aldrich 19278
Description: as §1, §2, §3

ssDNA = assay: NS-ELISA non-specific binding, ssDNA; settings: mAb at 100 nM
Description: as §1, §2, §3

T2 sequence (P01308 25-54 limits assumed): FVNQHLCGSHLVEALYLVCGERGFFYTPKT
T2 sequence (P01308 90-110 limits assumed): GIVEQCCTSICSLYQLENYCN

B1: v29456: humanized anti-NaPi2b IgG1/kappa antibody H1L2; VH SEQ ID NO:24, VL SEQ ID NO:29 (antibody, V domains shown)
VH: QVQLVQSGAEVKKPGASVKVSCKASGFTFTSYNVHWVRQAPGQGLEWMGAISPGNGDLSYAQKFQGRVTMTRDTSTSTVYMELSSLRSEDTAVYYCARGRTGMGAVDYWGQGTLVTVSS
VL: DVQMTQSPSSLSASVGDRVTITCRASQDVYSYLNWYQQKPGKAVKLLIYYTSRLQSGVPSRFSGSGSGTDYTLTISSLQPEDFATYYCQQYNIFPWTFGQGTKLEIK
modifications: v29452, v29456, v29460 VH (H1); v29453, v29454, v29455, v29456 VL (L2)
NS-ELISA binding score (ratio of signal between antibody-treated and untreated), Heparin [1]: 1.06 | Bmax [2]: 21,785 | Curve Hill Slope (h) [2]: 1.2 | Kd ([2]; apparent Kd): 2.27 nM | NS-ELISA binding score (ratio of signal between antibody-treated and untreated), dsDNA (dsDNA): 1.07 | NS-ELISA binding score (ratio of signal between antibody-treated and untreated), Insulin (Insulin): 1.05 | NS-ELISA binding score (ratio of signal between antibody-treated and untreated), ssDNA (ssDNA): 1.06
